We go through 1 molecule from publication PMC4320154, “Treatment of Methicillin-resistant Staphylococcus aureus experimental Osteomyelitis with bone-targeted Vancomycin” (SpringerPlus, 2013).

Each structure is given as a SMILES string.

For data set [1], the system named is Thirty clinical isolates of MRSA. Description: microbe, parasite or virus in culture. The class given is cell-based, Staphylococcus aureus. As to conditions: Thirty clinical isolates of. Here is the method:
Thirty clinical isolates of MRSA were studied. […] The minimum bactericidal concentration (MBC) of vancomycin HCl and BT2-peg2-vancomycin diacetate were also determined according to CLSI guidelines (Clinical and Laboratory Standards Institute [1999]).

A short description of data set [2]: Plasma concentrations in infected animals by LC/MS. As to conditions: male, Wistar, rat, in vivo, ip, 63.85 mg/kg. The class given is in vivo, male Wistar rats. The protocol: Four weeks after establishing infection, five rats were sacrificed, the left tibia aseptically removed and quantitative cultures performed. The remaining animals underwent surgical débridement of the infection site with sterile saline and were arbitrarily assigned to one of five study arms for a duration of 21 days: No treatment (n=17), vancomycin HCl every 12 hours (n=17, 42 doses), BT2-peg2-vancomycin diformate every 12 hours (n=17, 42 doses), BT2-peg2-vancomycin diformate every 12 hours for 3.5 days and then every fourth day thereafter (n=16, 11 doses), and BT2-peg2-vancomycin diformate once per week (n=15, 3 doses). Vancomycin HCl was administered at 50 mg/kg and BT2-peg2-vancomycin diformate at 63.85 mg/kg (equivalent to 50 mg/kg active vancomycin); both were administered intraperitoneally. Twelve hours after completion of therapy (day 50), blood was collected via cardiac puncture for hematology and chemistry studies [performed by Charles River (Wilmington, MA)], and drug concentration studies. Rats were sacrificed with CO2. The left (infected) tibia from one animal in each group was collected for histopathology with bones placed in 10% neutralized buffered formalin (NBF), decalcified, embedded in […], prepared as longitudinal cuts and stained with hematoxylin and eosin. The left (infected) tibias from the remaining animals were weighed, cryopulverized and processed for quantitative and qualitative bacterial culture. Culture results were expressed as log10 cfu/g of bone tissue.
Plasma concentrations of BT2-peg2-vancomycin in infected animals were measured by liquid chromatography/mass spectrometry (LC/MS). […] The elutes (50 μl) were diluted with 450 μl 5% ACN in 0.1% formic acid and analyzed by Accela LC System (Thermo Scientific, San Jose, CA) coupled with a LTQ-Orbitrap XL mass spectrometer (Thermo Scientific, San Jose, CA). […] Elutes from the LC column were ionized by electrospray ionization and BT2-peg2-vancomycin and teicoplanin were detected by multiple reaction monitoring. […]
Plasma concentrations of vancomycin were measured by LC/MS. […]

The conditions of data set [3]: rat, in vivo, 63.85 mg/kg; cited from earlier work. Here is the method:
Chemical conjugation of vancomycin to a bone-targeting moiety would theoretically yield a compound targeting delivery of vancomycin to bone, a strategy that could be useful in the treatment of bone infection. Pradama Inc. has developed a bone-targeted vancomycin, BT2-peg2-vancomycin (Figure 1) (Pierce et al. [2011]). Previous studies show concentrations of BT2-peg2-vancomycin twelve hours after a single injection (63.85 mg/kg, equivalent to 50 mg/kg vancomycin) were 27.97 and 14.18 μg/ml for plasma and bone, respectively. Concentrations of BT2-peg2-vancomycin after seven doses given every 12 h ...

With `CN[C@H](CC(C)C)C(=O)N[C@H]1C(=O)N[C@@H](CC(N)=O)C(=O)N[C@H]2C(=O)N[C@H]3C(=O)N[C@H](C(=O)N[C@H](C(=O)NCCOCCOCC(=O)Nc4ccc(OC)c(C(N)=O)c4O)c4cc(O)cc(O)c4-c4cc3ccc4O)[C@H](O)c3ccc(c(Cl)c3)Oc3cc2cc(c3O[C@@H]2O[C@H](CO)[C@@H](O)[C@H](O)[C@H]2O[C@H]2C[C@](C)(N)[C@H](O)[C@H](C)O2)Oc2ccc(cc2Cl)[C@H]1O` [BT2-peg2-vancomycin], in data set [1], the “MIC at which 50% of the isolates were inhibited (MIC50)” value was 1 µg/mL and the “MIC at which 90% of the isolates were inhibited (MIC90)” value is 2 µg/mL. In data set [2], this molecule came in with a level at 12 h of 130000 ng/mL and a level at 48 h of 880 ng/mL. Besides, in data set [3], the bone concentration is 14.18 µg/mL and the plasma concentration was 27970 ng/mL.
